The values that follow come from patent publication US20210283221A1.

A value given as a limit tells only on which side of the number the result lay.

For this experiment, the target named is human complement C5 with an unidentified amino acid substitution at Arg885 (in serum of the Example 4 patient) (human), P01031. As to the kind of experiment: cell-based or functional assay.

B1: Coversin protein, Q5YD59 19-168 (protein)
chain: DSESDCTGSEPVDAFQAFSEGKEAYVLVRSTDPKARDCLKGEPAGEKQDNTLPVMMTFKNGTDWASTDWTFTLDGAKVTATLGNLTQNREVVYDSQSHHCHVDKVEKEVPDYEMWMLDAGGLEVEVECCRQKLEELASGRNQMYPHLKDC
Turning to B1, the residual CH50 (U Eq/ml) as % of baseline in serum of the Example 4 patient at Coversin approximately 15 ug/ml (% of baseline CH50) is less than 5.
